Experimental data taken from patent publication US20240391991A1, “MODULATION OF WNT SIGNALLING IN PULMONARY DISORDERS” (Surrozen Operating, Inc., priority 2021, published 2024).
Entries after “also recorded” stand apart in the source; their conditions may differ.

B1: SWAP2: FZD1,2,7-specific Wnt agonist; anti-FZD antibody with LRP6 binder; heavy/light chains SEQ ID NO: 5 and 6 (antibody)
heavy: EVQLVESGGGLVQPGGSLRLSCAASGFTFTSYYISWVRQAPGKGLEWVAEISPYSGSTYYADSVKGRFTISADTSKNTAYLQMNSLRAEDTAVYYCALRARPPIRLHPRGSVMDYWGQGTLVTVSSGGGGSGGGGSGGGGSEVQLVESGGGLVQPGGSLRLSCAASGFNISSSYIHWVRQAPGKGLEWVAYIYSSYGSTYYADSVKGRFTISADTSKNTAYLQMNSLRAEDTAVYYCARASWYALDYWGQGTLVTVSSASTKGPSVFPLAPSSKSTSGGTAALGCLVKDYFPEPVTVSWNSGALTSGVHTFPAVLQSSGLYSLSSVVTVPSSSLGTQTYICNVNHKPSNTKVDKKVEPKSCDKTHTCPPCPAPEAAGGPSVFLFPPKPKDTLMISRTPEVTCVVVDVSHEDPEVKFNWYVDGVEVHNAKTKPREEQYNSTYRVVSVLTVLHQDWLNGKEYKCKVSNKALGAPIEKTISKAKGQPREPQVYTLPPSREEMTKNQVSLTCLVKGFYPSDIAVEWESNGQPENNYKTTPPVLDSDGSFFLYSKLTVDKSRWQQGNVFSCSVMHEALHNHYTQKSLSLSPGK
light: DIQMTQSPSSLSASVGDRVTITCRASQDVSTAVAWYQQKPGKAPKLLIYSASFLYSGVPSRFSGSGSGTDFTLTISSLQPEDFATYYCQQSYTTPPTFGQGTKVEIKGGGGSGGGGSGGGGSDIQMTQSPSSLSASVGDRVTITCRASQSVSSAVAWYQQKPGKAPKLLIYSASSLYSGVPSRFSGSRSGTDFTLTISSLQPEDFATYYCQQYWYGVAPITFGQGTKVEIKRTVAAPSVFIFPPSDEQLKSGTASVVCLLNNFYPREAKVQWKVDNALQSGNSQESVTEQDSKDSTYSLSSTLTLSKADYEKHKVYACEVTHQGLSSPVTKSFNRGEC
B2: SWAP1: FZD-1,2,5,7,8-specific Wnt agonist; anti-FZD antibody with LRP6 binder; heavy/light chains SEQ ID NO: 3 and 4 (antibody)
heavy: EVQLVESGGGLVQPGGSLRLSCAASGFTFTSYYISWVRQAPGKGLEWVAEISPYSGSTYYADSVKGRFTISADTSKNTAYLQMNSLRAEDTAVYYCALRARPPIRLHPRGSVMDYWGQGTLVTVSSGGGGSGGGGSGGGGSEVQLVESGGGLVQPGGSLRLSCAASGFTFSHYTLSWVRQAPGKGLEWVSVISGDGSYTYYADSVKGRFTISSDNSKNTLYLQMNSLRAEDTAVYYCARNFIKYVFANWGQGTLVTVSSASTKGPSVFPLAPSSKSTSGGTAALGCLVKDYFPEPVTVSWNSGALTSGVHTFPAVLQSSGLYSLSSVVTVPSSSLGTQTYICNVNHKPSNTKVDKKVEPKSCDKTHTCPPCPAPEAAGGPSVFLFPPKPKDTLMISRTPEVTCVVVDVSHEDPEVKFNWYVDGVEVHNAKTKPREEQYNSTYRVVSVLTVLHQDWLNGKEYKCKVSNKALGAPIEKTISKAKGQPREPQVYTLPPSREEMTKNQVSLTCLVKGFYPSDIAVEWESNGQPENNYKTTPPVLDSDGSFFLYSKLTVDKSRWQQGNVFSCSVMHEALHNHYTQKSLSLSPGK
light: DIQMTQSPSSLSASVGDRVTITCRASQDVSTAVAWYQQKPGKAPKLLIYSASFLYSGVPSRFSGSGSGTDFTLTISSLQPEDFATYYCQQSYTTPPTFGQGTKVEIKGGGGSGGGGSGGGGSDIELTQPPSVSVAPGQTARISCSGDNIGSFYVHWYQQKPGQAPVLVIYDKSNRPSGIPERFSGSNSGNTATLTISGTQAEDEADYYCQSYANTLSLVFGGGTKLTVLGQPKAAPSVTLFPPSSEELQANKATLVCLISDFYPGAVTVAWKADSSPVKAGVETTTPSKQSNNKYAASSYLSLTPEQWKSHRSYSCQVTHEGSTVEKTVAPTECS

How the values were obtained:
Format in all cases: cell-based
human AT2 cell organoid [1] = test: Human AT2 organoid size (diameter, microscopy); settings: in the absence of RSPO
[2] = tested on: mouse AT2 organoid cultures; test: Mouse AT2 cell organoid expansion, CellTiter-Glo assay; settings: SWAP in combination with RSPO2; C59 present; FIG. 9
Protocol: (§1) In all of the AT2 cell organoid experiments, the Wnt signaling inhibitor, C59, was used to prevent endogenous secretion of Wnt ligands. […] AT2 cell organoid growth was assessed with the CellTiter Glo assay.

human AT2 cell organoid [3] = test: Human AT2 cell organoid growth, CellTiter Glo assay; settings: for self-renewal and expansion of human AT2 cells: summary of organoid results
Protocol: For ex vivo studies, 3D organoid cultures (see, e.g., Zacharias, W. et al. (2018) Nature 555:251-257 and Barkauskas et al. (2017) Development 144:986-997) were constructed by combining primary human lung fibroblasts from healthy, pulmonary fibrosis, or COPD patients with alveolar epithelial cells (AT2 and AEP cells) from patients. Organoids were cultured in SAGM medium with growth factor free Matrigel. The Wnt antagonist and agonist were added in a sequential or concurrent manner to determine the effect on the fibroblast/myofibroblast proliferation, matrix production, alveolar epithelial cell proliferation and AT1/AT2 cell fate trans-differentiation. Alveolar organoids can also be cultured directly from human distal lung cells including purified AT2 cells (Kobayashi et al., (2020) supra).
as §1

Row | Molecule | human AT2 cell organoid growth as organoid size (diameter) (human AT2 cell organoid [1]; C59 present, FIG. 6) | numbers of organoids and organoid size by microscopy (human AT2 cell organoid [1]; FIG. 8) | expansion of mouse AT2 organoid cultures (CellTiter-Glo) [2] | effectiveness on human AT2 organoid expansion versus Chir99021 (human AT2 cell organoid [3]; 10 nM concentration, in the absence of RSPO, FIG. 8) | human AT2 organoid culture outgrowth/viability (CellTiter Glo) (human AT2 cell organoid [3]; SWAP alone, in the absence of RSPO, C59 present, FIG. 8) | self-renewal and expansion of human AT2 cells (human AT2 cell organoid [3]) | human AT2 cell organoid growth (CellTiter Glo), compared with Chir99021 (human AT2 cell organoid [3]; SWAP in combination with RSPO1, C59 present, FIGS. 5A and 5B)
1 | B1 | expand AT2 organoids | increased numbers of organoids and organoid size | led to the expansion of mouse AT2 organoid cultures | more effective than the small molecule Wnt pathway activator, Chir99021 | induced human AT2 organoid culture outgrowth/viability as assessed by the CellTiter Glo assay in a concentration-dependent manner; also recorded: induce human AT2 cell organoid expansion alone (in the absence of RSPO) in a dose-dependent manner | promotes the self-renewal and expansion of human AT2 cells | 
2 | B2 |  |  | led to the expansion of mouse AT2 organoid cultures |  |  | promotes the self-renewal and expansion of human AT2 cells | enhancement of human AT2 cell organoid growth that surpassed the growth observed upon treatment with the small molecule Wnt signaling activator, Chir99021; also recorded: more effective than the small molecule, CHIR99021
